Target: T1, biotinylated B Lymphocyte Stimulator, soluble form (human, UniProt Q9Y275 134-285, biotinylated with NHS-biotin, molar ratio 20:1 biotin:protein)
T1 construct: also called bio-B Lymphocyte Stimulator; free B Lymphocyte Stimulator
Test: purified scFv, receptor binding inhibition on IM9 cells

B1: I003F12S (scFv)
scFv: QVQLLQSAAELKKPGQSLKISCKGSGFTFTTYWIGWVRQLPGKGLEWMGIIYPGDSHTTYSPSFEGHVNISVDKSINTAYLQWSSLKASDTAMYYCARHDDDVLTGYYFESWGQGTMVTVSSGGGGSGGGGSGGGGSQSVLTQPASVSGSPGQSITISCTGTSSDVGGYNYVSWYQQHPGKAPKLMIYEGSKRPSGVSNRFSGSKSGNTASLTISGLQAEDEADYYCSSYTTRSTRVFGGGTKLTVLG
B1: binds.

— patent publication US20110293610A1 (published 2011)
